In the supplement of paper PMC9732359:
± gives the uncertainty stated by the source.

Assay: protein stability index of a GFP-peptide fusion (yeast GPS) (PSI 1-4); higher = more stable; sorted into four equal gates, so the index is relative within each strain
Summary of the method: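 Tiled yeast protein peptides of 17 residues were each joined downstream of GFP, on plasmids that also express Cherry. The pooled library was maintained in yeast, and mid-log cultures in leucine-free medium were sorted into four equal gates on the GFP/Cherry ratio. Plasmids from every gate were amplified by PCR and sequenced on Illumina, with barcodes linking reads to strains. The protein stability index of a peptide is its gate-number-weighted read frequency summed over the gates.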

HELSSSHTSLVKIGKFI [SRB8]
protein stability index (doa10∆): 1.8 ± 0.042 | protein stability index (pdr5∆): 2.61 ± 0.033 | protein stability index (san1∆): 1.84 ± 0.079 | protein stability index (ubr1∆): 1.63 ± 0.052

DKLPQFVDENTFQRVCQ [RPN1]
protein stability index (doa10∆): 3.04 ± 0.082 | protein stability index (pdr5∆): 3.28 ± 0.12 | protein stability index (san1∆): 3.15 ± 0.062 | protein stability index (ubr1∆): 3.3 ± 0.078

AGSAALKIIHDTFRWVG [RPO31]
protein stability index (doa10∆): 3.23 ± 0.093 | protein stability index (pdr5∆): 2.85 ± 0.12 | protein stability index (san1∆): 1.19 ± 0.17 | protein stability index (ubr1∆): 3.24 ± 0.063

GLPLGIAEEKMWSQFQT [YGR119C/NUP57]
protein stability index (doa10∆): 2.84 ± 0.14 | protein stability index (ubr1∆): 3.05 ± 0.19

LKNSIMSFIFPSYAERQ [YML031W/NDC1]
protein stability index (doa10∆): 2.51 ± 0.075 | protein stability index (pdr5∆): 2.54 ± 0.083 | protein stability index (san1∆): 2.38 ± 0.079 | protein stability index (ubr1∆): 2.4 ± 0.067

LLTPDIGAVYSGMGPDY [PRE8]
protein stability index (doa10∆): 1.32 ± 0.055 | protein stability index (pdr5∆): 1.72 ± 0.074 | protein stability index (san1∆): 1.2 ± 0.1 | protein stability index (ubr1∆): 1.52 ± 0.081

QDMQLKIWSVKDGSNPR [RPN14]
protein stability index (doa10∆): 2.99 ± 0.097 | protein stability index (pdr5∆): 2.86 ± 0.088 | protein stability index (san1∆): 2.45 ± 0.1 | protein stability index (ubr1∆): 2.62 ± 0.075

NVVLVTNDRLNREAATK [DIS3]
protein stability index (doa10∆): 2.33 ± 0.086 | protein stability index (pdr5∆): 2.9 ± 0.088 | protein stability index (san1∆): 1.89 ± 0.21 | protein stability index (ubr1∆): 2.37 ± 0.074

EDDLVGVVQMVTDNKTP [TAF14]
protein stability index (doa10∆): 2.72 ± 0.15 | protein stability index (pdr5∆): 2.52 ± 0.19 | protein stability index (san1∆): 2.84 ± 0.091

VKVNHNEKRYATASAIA [RPL4A]
protein stability index (doa10∆): 2.29 ± 0.1 | protein stability index (pdr5∆): 2.62 ± 0.11 | protein stability index (san1∆): 2.1 ± 0.12 | protein stability index (ubr1∆): 2.18 ± 0.067

MGDELTRSHFNALYDTL [RPN6]
protein stability index (doa10∆): 2.3 ± 0.048 | protein stability index (pdr5∆): 2.45 ± 0.067 | protein stability index (san1∆): 2.67 ± 0.051 | protein stability index (ubr1∆): 2.74 ± 0.044

VKLKQQKVNAVDSTFQK [SMC3]
protein stability index (pdr5∆): 2.9 ± 0.19 | protein stability index (san1∆): 3.36 ± 0.15 | protein stability index (ubr1∆): 3.29 ± 0.062

LLETITYVLNTWTNSKI [YML103C/NUP188]
protein stability index (doa10∆): 1.85 ± 0.05 | protein stability index (pdr5∆): 2.21 ± 0.05 | protein stability index (san1∆): 2.14 ± 0.066 | protein stability index (ubr1∆): 2.29 ± 0.036

EVFSVLGIEAARYSIIR [RPO31]
protein stability index (doa10∆): 1.72 ± 0.13 | protein stability index (pdr5∆): 1.63 ± 0.11 | protein stability index (san1∆): 1.43 ± 0.25 | protein stability index (ubr1∆): 1.59 ± 0.14

SLEHELKRSTELLETVS [YIL149C/MLP2]
protein stability index (doa10∆): 2 ± 0.057 | protein stability index (pdr5∆): 2.21 ± 0.054 | protein stability index (san1∆): 2.25 ± 0.071 | protein stability index (ubr1∆): 2.17 ± 0.037

TGHLFLKIIHTSVWAGQ [PRP8]
protein stability index (doa10∆): 1.31 ± 0.06 | protein stability index (pdr5∆): 1.31 ± 0.056 | protein stability index (san1∆): 1.19 ± 0.097 | protein stability index (ubr1∆): 1.28 ± 0.051

WIWDMNVHGSLEPFLLM [BRR2]
protein stability index (doa10∆): 1.61 ± 0.06 | protein stability index (pdr5∆): 2.08 ± 0.078 | protein stability index (san1∆): 1.72 ± 0.2 | protein stability index (ubr1∆): 1.81 ± 0.077

SELLGGTFKSTLDREYI [QCR2]
protein stability index (doa10∆): 3.15 ± 0.093 | protein stability index (pdr5∆): 3.17 ± 0.11 | protein stability index (san1∆): 2.87 ± 0.089 | protein stability index (ubr1∆): 3.1 ± 0.05

RSLDENRLEIKYHNDLI [SMC1]
protein stability index (pdr5∆): 3.2 ± 0.29 | protein stability index (san1∆): 2.78 ± 0.26 | protein stability index (ubr1∆): 3.14 ± 0.24

GHLNGHTPTIASYLTPL [SSN2]
protein stability index (doa10∆): 2.24 ± 0.039 | protein stability index (pdr5∆): 2.74 ± 0.043 | protein stability index (san1∆): 2.62 ± 0.044 | protein stability index (ubr1∆): 2.54 ± 0.035

WQEYSSVFKGGMQNLIK [SRP14]
protein stability index (doa10∆): 3.1 ± 0.12 | protein stability index (pdr5∆): 3.44 ± 0.13 | protein stability index (san1∆): 2.92 ± 0.14 | protein stability index (ubr1∆): 3.16 ± 0.17

DLQNLNLNTDKLKNNAS [YJL039C/NUP192]
protein stability index (doa10∆): 2.54 ± 0.11 | protein stability index (pdr5∆): 2.65 ± 0.061 | protein stability index (san1∆): 2.94 ± 0.086 | protein stability index (ubr1∆): 2.5 ± 0.057

VFDLCWNSLMYALQSVK [RRP43]
protein stability index (doa10∆): 2 ± 0.062 | protein stability index (pdr5∆): 2.02 ± 0.067 | protein stability index (san1∆): 2.04 ± 0.074 | protein stability index (ubr1∆): 1.99 ± 0.051

GISNGSESKDSDKPSLP [YLR335W/NUP2]
protein stability index (doa10∆): 3.29 ± 0.13 | protein stability index (pdr5∆): 3.19 ± 0.12 | protein stability index (ubr1∆): 2.79 ± 0.13

TDIKDTLTKISMLFKTS [MCD1]
protein stability index (doa10∆): 2.87 ± 0.15 | protein stability index (pdr5∆): 2.88 ± 0.27 | protein stability index (san1∆): 2.37 ± 0.18

KGLTYLHLDYNFNLKPT [PRP8]
protein stability index (doa10∆): 2.19 ± 0.032 | protein stability index (pdr5∆): 2.12 ± 0.035 | protein stability index (san1∆): 2.05 ± 0.05 | protein stability index (ubr1∆): 2.22 ± 0.03

AIEPETFTQLVSSSLYE [PUP3]
protein stability index (doa10∆): 2.35 ± 0.063 | protein stability index (pdr5∆): 2.89 ± 0.068 | protein stability index (san1∆): 2.75 ± 0.063 | protein stability index (ubr1∆): 2.54 ± 0.043

SVIVSQFCAFDSSSNTY [SIN4]
protein stability index (doa10∆): 2.48 ± 0.084 | protein stability index (pdr5∆): 2.26 ± 0.073 | protein stability index (san1∆): 2.51 ± 0.12 | protein stability index (ubr1∆): 2.19 ± 0.074

EHVILGNGELYMDCLLY [SNU114]
protein stability index (doa10∆): 2.31 ± 0.053 | protein stability index (pdr5∆): 2.73 ± 0.073 | protein stability index (san1∆): 2.76 ± 0.086 | protein stability index (ubr1∆): 2.67 ± 0.063

KAYVRLTADYDALDIAN [RPL25]
protein stability index (doa10∆): 2.94 ± 0.14 | protein stability index (pdr5∆): 3.04 ± 0.15 | protein stability index (san1∆): 3.17 ± 0.094 | protein stability index (ubr1∆): 3.52 ± 0.091

KEKESKKDSKPAFSFGI [YLR335W/NUP2]
protein stability index (doa10∆): 2.96 ± 0.077 | protein stability index (pdr5∆): 3.01 ± 0.068 | protein stability index (san1∆): 3.19 ± 0.058 | protein stability index (ubr1∆): 3.23 ± 0.059

LNDSNVKSFKPHLLKQG [RRP42]
protein stability index (doa10∆): 2.63 ± 0.083 | protein stability index (pdr5∆): 3.25 ± 0.18 | protein stability index (san1∆): 2.58 ± 0.24 | protein stability index (ubr1∆): 2.54 ± 0.13

HNGREGSIEEPELNVSL [MCD1]
protein stability index (doa10∆): 3.31 ± 0.3 | protein stability index (pdr5∆): 3.5 ± 0.15 | protein stability index (san1∆): 3.07 ± 0.12 | protein stability index (ubr1∆): 3.37 ± 0.071

LYKEFFNEKFPSLIQEE [NUT1]
protein stability index (doa10∆): 3 ± 0.13 | protein stability index (pdr5∆): 3.19 ± 0.13 | protein stability index (san1∆): 3.06 ± 0.059 | protein stability index (ubr1∆): 3.2 ± 0.12

ALMKEKDIRSTLASLIR [RPC82]
protein stability index (doa10∆): 3.2 ± 0.27 | protein stability index (pdr5∆): 2.85 ± 0.21 | protein stability index (san1∆): 2.43 ± 0.24 | protein stability index (ubr1∆): 3.13 ± 0.12

PSYSPTSPGYSPGSPAY [RPO21]
protein stability index (doa10∆): 2.52 ± 0.067 | protein stability index (pdr5∆): 2.27 ± 0.053 | protein stability index (san1∆): 2.33 ± 0.1 | protein stability index (ubr1∆): 2.02 ± 0.043

PRMVRDVFRLARENAPS [RPT3]
protein stability index (doa10∆): 2.62 ± 0.17 | protein stability index (pdr5∆): 2.88 ± 0.059 | protein stability index (san1∆): 2.86 ± 0.16 | protein stability index (ubr1∆): 2.89 ± 0.097

EAFGNIKIDAKPALFER [MCD1]
protein stability index (doa10∆): 2.11 ± 0.083 | protein stability index (pdr5∆): 2.89 ± 0.15 | protein stability index (san1∆): 1.84 ± 0.21 | protein stability index (ubr1∆): 2.58 ± 0.078

TTVKPLFQNVPEQGEEP [YAR002W/NUP60]
protein stability index (doa10∆): 3.08 ± 0.07 | protein stability index (pdr5∆): 3.3 ± 0.06 | protein stability index (san1∆): 3.32 ± 0.04 | protein stability index (ubr1∆): 3.21 ± 0.052

IEATDLGNIASSFYINH [BRR2]
protein stability index (doa10∆): 3 ± 0.085 | protein stability index (pdr5∆): 3.04 ± 0.1 | protein stability index (san1∆): 3.12 ± 0.078 | protein stability index (ubr1∆): 3.3 ± 0.072

FNGLKPLIQNSMRTIMK [PRP8]
protein stability index (doa10∆): 2.56 ± 0.091 | protein stability index (pdr5∆): 2.51 ± 0.12 | protein stability index (san1∆): 2.15 ± 0.17 | protein stability index (ubr1∆): 2.56 ± 0.15

NFLDAPGHVNFMDETAV [SNU114]
protein stability index (doa10∆): 3.26 ± 0.16 | protein stability index (pdr5∆): 3.28 ± 0.11 | protein stability index (san1∆): 3.29 ± 0.068 | protein stability index (ubr1∆): 3.08 ± 0.11

DVHNGYILRYLHANGAS [COB]
protein stability index (doa10∆): 2.83 ± 0.096 | protein stability index (pdr5∆): 2.37 ± 0.093 | protein stability index (san1∆): 1.93 ± 0.11 | protein stability index (ubr1∆): 2.5 ± 0.079

ERSAGNIVQVFKKAAPS [RPB2]
protein stability index (doa10∆): 2.6 ± 0.12 | protein stability index (pdr5∆): 2.53 ± 0.14 | protein stability index (san1∆): 2.52 ± 0.11 | protein stability index (ubr1∆): 2.91 ± 0.27

FDKLLNIPRRELKINLP [SRB4]
protein stability index (doa10∆): 2.57 ± 0.074 | protein stability index (pdr5∆): 2.6 ± 0.053 | protein stability index (san1∆): 2.74 ± 0.071 | protein stability index (ubr1∆): 2.12 ± 0.061

EKSAYKFFHNGMIYNKL [FAS2]
protein stability index (doa10∆): 2.92 ± 0.086 | protein stability index (pdr5∆): 2.81 ± 0.07 | protein stability index (san1∆): 2.88 ± 0.071 | protein stability index (ubr1∆): 2.83 ± 0.064

TNYEMSYWQKSYFKNSV [LIN1]
protein stability index (doa10∆): 2.07 ± 0.038 | protein stability index (pdr5∆): 2.09 ± 0.036 | protein stability index (san1∆): 2.09 ± 0.061 | protein stability index (ubr1∆): 1.99 ± 0.037

MNAGGRNVTIQLENADT [RPN2]
protein stability index (pdr5∆): 2.44 ± 0.18 | protein stability index (san1∆): 1.62 ± 0.29

GYALRDVQARRQFVSNV [RPP1]
protein stability index (pdr5∆): 1.99 ± 0.16

NRWHSESWANQLTVCGA [FAS2]
protein stability index (doa10∆): 1.93 ± 0.04 | protein stability index (pdr5∆): 1.87 ± 0.053 | protein stability index (san1∆): 1.8 ± 0.086 | protein stability index (ubr1∆): 1.86 ± 0.042

TRLLNIVMQLRKCCNHP [ISW2]
protein stability index (doa10∆): 2.65 ± 0.062 | protein stability index (pdr5∆): 2.84 ± 0.061 | protein stability index (san1∆): 2.94 ± 0.049 | protein stability index (ubr1∆): 2.84 ± 0.057
